According to FireProtDB (doi:10.1016/s0022-2836(02)00630-7):

B1: Phosphocarrier protein HPr, P08877 (parent)
chain: MAQKTFKVTADSGIHARPATVLVQTASKYDADVNLEYNGKTVNLKSIMGVMSLGIAKGAEITISASGADENDALNALEETMKSEGLGE

Variants of: B1
Conditions: Bacillus subtilis (strain 168), pH 7, CD, Potassium phosphate 10 mM, reversible: yes, structure 1KKM, whole UniProt chain shown; for ddG of mutation (higher = less stable) / denaturant m value / denaturant midpoint (higher = more stable): 25 °C

Variant	ddG of mutation (higher = less stable) (Thermal) [kcal/mol]	ddG of mutation (higher = less stable) (Urea) [kcal/mol]	denaturant m value (Urea) [kcal/mol/M]	denaturant midpoint (higher = more stable) (Urea) [M]	Tm (Thermal) [°C]	change of melting temperature, mutant - wild type (higher = more stable) (Thermal) [°C]	unfolding enthalpy (van 't Hoff) (Thermal) [kcal/mol]
MAQKTFKVTADSGIHARPATVLVQTASKYDADVNLEYNGKTVNLKSIMEVMSLGIAKGAEITISASGADENDALNALEETMKSEGLGE	-1.4	-1.2	1	5.77	78.1	5.5	83.8
MAQKTFKVTADSGIHARPATVLVQTASKYDADVNLEYNGKTVNLKSIMKVMSLGIAKGAEITISASGADENDALNALEETMKSEGLGE	1	0.8	1.13	3.84	68.1	-4.5	73.9
MAQKTFKVTADSGIHARPATVLVQTASKYDADVNLEYNGKTVNLKSIMAVMSLGIAKGAEITISASGADENDALNALEETMKSEGLGE	-0.8	-0.9	1.01	5.44	75.8	3.2	82.4
